Laboratory results reported in paper PMC10526831, “SUPPRESSOR OF MAX2 LIKE 6, 7, and 8 Interact with DDB1 BINDING WD REPEAT DOMAIN HYPERSENSITIVE TO ABA DEFICIENT 1 to Regulate the Drought Tolerance and Target SUCROSE NONFERMENTING 1 RELATED PROTEIN K”.

T1: GST-SMXL7 (Arabidopsis thaliana, UniProt O80875 1-1002)
T1 sequence: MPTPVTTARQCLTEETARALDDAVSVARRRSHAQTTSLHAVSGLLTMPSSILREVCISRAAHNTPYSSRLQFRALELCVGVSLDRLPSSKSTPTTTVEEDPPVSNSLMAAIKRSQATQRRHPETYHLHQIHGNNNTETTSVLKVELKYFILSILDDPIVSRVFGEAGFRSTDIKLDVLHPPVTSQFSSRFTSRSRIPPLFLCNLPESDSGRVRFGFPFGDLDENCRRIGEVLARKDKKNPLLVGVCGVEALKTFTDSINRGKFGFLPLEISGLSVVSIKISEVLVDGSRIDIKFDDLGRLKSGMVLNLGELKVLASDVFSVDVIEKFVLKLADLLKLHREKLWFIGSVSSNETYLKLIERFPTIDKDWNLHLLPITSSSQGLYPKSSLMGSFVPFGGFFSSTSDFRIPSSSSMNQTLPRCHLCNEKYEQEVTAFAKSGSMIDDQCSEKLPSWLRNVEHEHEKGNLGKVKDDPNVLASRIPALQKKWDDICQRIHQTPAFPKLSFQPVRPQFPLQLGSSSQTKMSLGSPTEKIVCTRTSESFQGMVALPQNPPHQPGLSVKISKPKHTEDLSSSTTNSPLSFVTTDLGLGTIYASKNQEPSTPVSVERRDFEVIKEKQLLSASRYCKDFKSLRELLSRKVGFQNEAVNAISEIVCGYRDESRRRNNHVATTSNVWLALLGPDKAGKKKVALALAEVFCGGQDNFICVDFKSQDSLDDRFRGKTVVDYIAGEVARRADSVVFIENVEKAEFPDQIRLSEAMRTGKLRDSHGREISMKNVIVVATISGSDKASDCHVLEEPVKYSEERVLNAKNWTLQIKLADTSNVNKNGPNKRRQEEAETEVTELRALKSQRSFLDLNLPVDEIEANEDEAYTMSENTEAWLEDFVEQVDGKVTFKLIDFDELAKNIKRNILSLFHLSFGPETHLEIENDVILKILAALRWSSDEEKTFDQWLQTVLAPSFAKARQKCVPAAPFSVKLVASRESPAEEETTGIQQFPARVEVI

T2: GST-SMXL6 (Arabidopsis thaliana, UniProt Q9LML2 1-979)
T2 sequence: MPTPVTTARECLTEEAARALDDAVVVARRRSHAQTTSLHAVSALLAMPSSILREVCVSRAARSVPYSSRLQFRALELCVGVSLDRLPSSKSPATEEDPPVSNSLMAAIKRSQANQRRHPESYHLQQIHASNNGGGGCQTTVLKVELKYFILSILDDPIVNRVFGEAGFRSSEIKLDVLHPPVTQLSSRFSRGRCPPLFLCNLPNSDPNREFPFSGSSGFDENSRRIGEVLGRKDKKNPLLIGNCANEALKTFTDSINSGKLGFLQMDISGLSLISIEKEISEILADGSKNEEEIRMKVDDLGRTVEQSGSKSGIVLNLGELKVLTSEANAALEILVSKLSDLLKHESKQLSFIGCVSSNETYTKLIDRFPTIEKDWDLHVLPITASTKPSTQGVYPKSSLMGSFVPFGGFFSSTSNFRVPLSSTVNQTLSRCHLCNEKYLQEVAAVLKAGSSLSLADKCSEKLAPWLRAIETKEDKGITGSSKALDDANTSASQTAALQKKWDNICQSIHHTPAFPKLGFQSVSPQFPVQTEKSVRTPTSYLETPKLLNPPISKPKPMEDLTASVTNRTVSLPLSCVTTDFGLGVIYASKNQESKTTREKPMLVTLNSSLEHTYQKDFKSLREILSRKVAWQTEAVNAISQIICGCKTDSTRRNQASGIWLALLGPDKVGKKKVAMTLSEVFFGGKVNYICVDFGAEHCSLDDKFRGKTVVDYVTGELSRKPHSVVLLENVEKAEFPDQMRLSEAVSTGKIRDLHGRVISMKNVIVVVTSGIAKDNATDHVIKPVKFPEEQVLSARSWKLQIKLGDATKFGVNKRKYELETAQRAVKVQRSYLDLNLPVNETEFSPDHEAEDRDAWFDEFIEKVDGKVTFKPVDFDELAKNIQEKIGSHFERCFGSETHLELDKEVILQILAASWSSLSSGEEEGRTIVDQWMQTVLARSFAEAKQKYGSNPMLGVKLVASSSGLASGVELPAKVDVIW

T3: GST-SMXL8 (Arabidopsis thaliana, UniProt F4IGZ2 1-910)
T3 sequence: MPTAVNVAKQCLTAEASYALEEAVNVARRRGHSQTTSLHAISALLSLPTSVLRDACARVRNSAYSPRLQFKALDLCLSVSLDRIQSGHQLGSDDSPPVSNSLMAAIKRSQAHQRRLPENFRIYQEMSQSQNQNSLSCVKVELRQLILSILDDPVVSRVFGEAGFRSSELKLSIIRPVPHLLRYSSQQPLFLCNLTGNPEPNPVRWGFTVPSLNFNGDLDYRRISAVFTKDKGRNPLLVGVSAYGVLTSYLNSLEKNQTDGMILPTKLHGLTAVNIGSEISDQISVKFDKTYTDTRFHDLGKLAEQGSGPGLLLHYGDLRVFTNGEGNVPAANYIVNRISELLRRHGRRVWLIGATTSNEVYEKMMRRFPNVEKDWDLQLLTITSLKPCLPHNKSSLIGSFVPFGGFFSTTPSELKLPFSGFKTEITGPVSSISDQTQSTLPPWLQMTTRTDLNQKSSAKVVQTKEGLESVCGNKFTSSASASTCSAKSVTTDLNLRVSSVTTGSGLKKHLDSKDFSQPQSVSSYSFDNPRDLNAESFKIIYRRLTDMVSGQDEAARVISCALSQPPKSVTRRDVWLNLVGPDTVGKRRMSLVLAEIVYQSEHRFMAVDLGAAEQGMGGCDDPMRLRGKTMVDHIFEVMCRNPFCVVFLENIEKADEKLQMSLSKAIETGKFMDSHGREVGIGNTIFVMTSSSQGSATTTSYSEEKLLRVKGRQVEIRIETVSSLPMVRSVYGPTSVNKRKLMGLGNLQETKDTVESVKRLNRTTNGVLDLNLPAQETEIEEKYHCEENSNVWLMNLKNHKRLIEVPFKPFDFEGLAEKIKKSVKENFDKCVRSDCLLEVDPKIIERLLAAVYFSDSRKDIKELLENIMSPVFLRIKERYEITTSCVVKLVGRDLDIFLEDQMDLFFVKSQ

B1: SnRK2.3 promoter p2.3-3-1-2-a (dsDNA)
DNA 1: CTTGGGGCAACCAATTATTGCCTTTTTTCTTCCTCTCTTTCCTTATTCGTT
DNA 2: AACGAATAAGGAAAGAGAGGAAGAAAAAAGGCAATAATTGGTTGCCCCAAG
B2: SnRK2.6 promoter p2.6-3-1-1-a (dsDNA)
DNA 1: GACATTTGTGGTAACTTGTTTTTCTTTTATTTTCCGTTTTTAAATGCGGAAACCCTT
DNA 2: AAGGGTTTCCGCATTTAAAAACGGAAAATAAAAGAAAAACAAGTTACCACAAATGTC

Key:
Assay in all cases: EMSA; 25x unlabeled probe as competitor; 1 ug protein, 20 uL reaction, room temperature 30 min; 6% native PAGE in 0.5x TBE; binding buffer, salt and pH not given
Conditions in all cases: protein: recombinant; tags: N-terminal GST (pGEX-6P-1); label: biotin; blunt
GST-SMXL7 = target: T1, GST-SMXL7
GST-SMXL6 = target: T2, GST-SMXL6
GST-SMXL8 = target: T3, GST-SMXL8

Binder	binding result (GST-SMXL7)	binding result (GST-SMXL6)	binding result (GST-SMXL8)
B1	binds	binds	binds
B2		binds	binds
